Source: patent US20110200615A1 (published 2011)

B1: 4B7 scFv (yeast displayed) (scFv)
chain: QVQLQQSGPGLVKPSQTLSLTCSVSGGSINSDGSYWSWVRQHPGKGLEWIGYIYYSGTTYFNPSLKSRLTMSVDTSKNQFSLKMTSVTAADTAVYYCARMSGSRSYSQYYFDSWGQGTLVTVSSGGGGSGGGGSGGGGSDIQMTQSPSSLSASVGDRVTITCRASQSISSYLNWYQQKPGTAPKLLISDASTLQSGVPSRFSGSGSGTEFTLTISNLQPEDFATYYCQQFNSYVWTFGQGTKLEIK
B2: 4B19.1 IgG (antibody, V domains shown)
VH: QVQLVQSGAEVKKPGASVNVSCKASGYTFTGYYIYWVRQAPGQGLEWMGWINPNSGVTKYAQKFQGRVTMTIDTSTNTAYMELNRLRADDTAVYYCAREWTQLWSPYDYWGQGTTVTVSS
VL: DIVLTQSPSTLSASVGDRVTISCRASRSIGWYLNWYQQRPGKAPKLLIYAASSLHNGVPSRFSGSGSGTEFTLTISSLQPDDFATYYCQQAFGFPRTFGQGTKVEIKR
B3: 1B14 scFv (yeast displayed) (scFv)
chain: EVQLVESGGGLVQPGGSLRLSCAASGFTFSSYSMNWVRQAPGKGLEWVAVIWYDGSNKYYADSVKGRFTISRDNSKNTLYLQMNSLRAEDTAVYYCARSSIVGAPYGMDVWGQGTTVTVSSGGGGSGGGGSGGGGSEIVLTQSPSSLSAAVGDRVTITCRASQNIYSYLNWYQQKLGKAPNLLIYAVFSLQSGVPSRFSGSGYGTDFTLTISSLQPEDFATYYCQQSSSSPLTFGGGTKVEIK
B4: 4B6 scFv (yeast displayed) (scFv)
chain: QVQLVQSGAEVKKPGESLVISCKASGDKDTFTSFWIAWVRQMPGKGLEWMGIIYAGDSDTRYSPSFQGHVNISVDRSTNTAYLQWSSLKASDTAMYYCARHDSRYKYFYFGMDVWGQGTTVTVSSGGGGSGGGGSGGGGSDVVMTQSPSSLSASVGDRITITCQAGQDISNFLNWYQQKPGKAPKLLIRDASNLETGVPSRFSGGGSGTHFTFTISSLHPEDIATYFCQQYDNLPYTFGQGTKLEIK

How the values were obtained:
[1] = molecular target: T1, Botulinum neurotoxin type B, subtype B3 (BoNT/B3) (Clostridium botulinum); assay: flow cytometry; yeast-displayed scFv, soluble toxin
[2] = molecular target: T2, Botulinum neurotoxin type B, subtype B4 (BoNT/B4) (Clostridium botulinum); assay: as above
[3] = molecular target: T1, Botulinum neurotoxin type B, subtype B3 …; assay: KinExA flow fluorimetry; IgG in solution
[4] = molecular target: T2, Botulinum neurotoxin type B, subtype B4 …; assay: KinExA flow fluorimetry; IgG in solution

Binder | Kd [1] [nM] | Kd [2] [nM] | Kd [3] [nM] | Kd [4] [nM]
B1 | 25.1 | 10 | – | –
B2 | – | – | 0.156 | 0.194
B3 | – | 2.12 | – | –
B4 | 1.08 | 1.61 | – | –
